The text below walks through data of patent US20160340421A1 (Regeneron, published 2016).

Assay [1] deals with T1, Human GDF8 homodimer (mature human Growth and Differentiation Factor-8) (human, UniProt O14793 267-375).
T1 sequence: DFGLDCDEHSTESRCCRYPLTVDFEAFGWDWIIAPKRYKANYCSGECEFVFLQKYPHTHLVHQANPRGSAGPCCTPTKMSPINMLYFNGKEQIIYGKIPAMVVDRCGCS
Description: cell-based or functional assay.

Assay [2] addresses T1, Human GDF8 homodimer (mature human …). The experiment in a line: SPR, antibody captured, buffer without BSA. The method, then:
(§1) Equilibrium dissociation constants (KD values) for antigen binding to selected antibodies were determined by surface kinetics using a real-time biosensor surface plasmon resonance assay (BIACORE™ 2000). Each selected antibody was captured on either a goat anti-mouse IgG polyclonal antibody surface or a goat anti-hFc polyclonal antibody (Jackson Immuno Research Lab) surface created through direct chemical coupling to a BIACORE™ chip to form a captured antibody surface. Human GDF8 homodimer, hGDF11 homodimer, or hGDF5 homodimer at 25 nM was injected over the captured antibody surfaces, and antigen-antibody binding and dissociation were monitored in real time at room temperature. Kinetic analysis was performed to calculate KD, dissociation rate constants (kd), association rate constants (ka) and half-life of antigen/antibody complex dissociation (Table 2).

Assay [3] deals with T2, GDF8/TGFβ[48-72] chimera (T48): GDF8.1-47.TGFβ1.49-76.GDF8.73-109 (human GDF8 with human TGFβ-1 sequence).
T2 construct: used as CHO conditioned medium / supernatant; also called GDF8/TGFβ-1 chimeric construct
T2 chain: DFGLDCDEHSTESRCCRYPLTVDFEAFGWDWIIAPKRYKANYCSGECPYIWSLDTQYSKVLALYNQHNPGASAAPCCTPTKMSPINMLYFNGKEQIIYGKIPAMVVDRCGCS
The experiment in a line: Western blot of CHO.hFurin supernatant. The method, then:
(§2) The various chimeric GDF8 pro-proteins were transiently transfected in an engineered stable CHO.hFurin cell line. A similar Western Blot analysis as described above was used to detect the binding of various anti-hGDF8 antibodies to each of the chimeric GDF8. Briefly, […] of CHO supernatant were loaded onto each lane of an SDS-PAGE (non-reducing or reducing) gel and electroblotted onto a PVDF membrane. The membrane was then incubated with an anti-GDF8 antibody at 2 μg/ml followed by exposure to the appropriate secondary antibody conjugated to HRP.

The target in assay [4] is T3, B48 chimera: GDF8.1-47.BMP2.48-77.GDF8.73-109.
T3 construct: CHO.hFurin supernatant
T3 chain: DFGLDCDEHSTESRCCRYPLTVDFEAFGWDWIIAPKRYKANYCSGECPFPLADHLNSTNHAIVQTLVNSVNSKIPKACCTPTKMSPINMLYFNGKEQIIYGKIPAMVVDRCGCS
Description: Western blot of CHO.hFurin supernatant. The method, then: as §2

Assay [5] addresses T1, Human GDF8 homodimer (mature human …). The experiment in a line: SPR Biacore 3000, buffer without BSA.
Assay [6] has the same target. The experiment in a line: cell-based or functional assay. This is another data set of the same source.
For assay [7], the target named is T4, hGDF11 homodimer (human, UniProt O95390 299-407).
T4 sequence (looked up): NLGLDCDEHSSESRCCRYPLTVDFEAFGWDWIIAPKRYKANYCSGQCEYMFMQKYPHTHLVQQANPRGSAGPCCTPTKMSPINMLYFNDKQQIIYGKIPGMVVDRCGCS
The experiment in a line: cell-based or functional assay.

In assay [8] the target is T4, hGDF11 homodimer. Description: cell-based or functional assay. The source holds these as a separate data set.
Assay [9] addresses T1, Human GDF8 homodimer (mature human …). Description: SPR, antibody captured, 25 nM antigen. The method, then:
as §1

The target of assay [10] is T4, hGDF11 homodimer. Description: SPR, antibody captured, 25 nM antigen. The method, then:
as §1

The target in assay [11] is T5, T65 chimera: GDF8.1-64.TGFβ1.69-76.GDF8.73-109 (Mus musculus (Mouse), UniProt O08689 268-376).
T5 construct: CHO.hFurin supernatant
T5 chain: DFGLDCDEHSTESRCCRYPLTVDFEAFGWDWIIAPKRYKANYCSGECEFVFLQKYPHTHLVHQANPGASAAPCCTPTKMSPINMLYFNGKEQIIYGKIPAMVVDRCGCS
The experiment in a line: Western blot of CHO.hFurin supernatant, antibody 2 µg/ml. The protocol:
as §2

Assay [12] addresses T3, B48 chimera: …. The assay is described as above. The method, then:
as §2

The target of assay [13] is T6, B91 chimera: GDF8.1-90.BMP2.96-110.GDF8.106-109.
T6 construct: CHO.hFurin supernatant
T6 chain: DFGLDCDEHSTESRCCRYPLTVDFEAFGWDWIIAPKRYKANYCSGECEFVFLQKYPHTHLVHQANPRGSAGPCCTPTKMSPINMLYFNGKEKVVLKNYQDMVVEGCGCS
Described as above. The method, then: as §2

B1: 8D12 (antibody, V domains shown)
VH: QVQLVESGGGVVQPGRSLRLSCAASGFTFSRYGIHWVRQAPGKGLEWVAVISYDGSDEYYVDSVKGRFSISRDNSKNTLYLQMNSLRPADSAVYYCVKGDLELGFDYWGQGTLVTVSS
VL: DIVMTQAAPSIPVIPGESVSMSCRSSKSLLYSNGHTYVYWFVQRPGQSPQLLIYRMSNLASGVPDRFSGSGSGTAFTLRISRVEAEDVGVYYCMQNLEFPLTFGAGTKLELK
notes: also called antibody 8D12; 8D12 Antibody
Regarding B1, in [1], the “IC50, luciferase bioassay, 0.5 nM GDF8” value is 3.11 nM and the “IC50, luciferase bioassay, 1 nM GDF8” value is 5.55 nM. In assay [2], binding was characterised by a dissociation constant (Kd) of 0.016 nM and the T1/2 was 14 h. In addition, the binding result in [3] is “no binding (tested: 2 µg/ml)”. The binding result in assay [4] is listed as “no binding (tested: 2 µg/ml)”. In assay [5], this molecule gave a Kd of 0.071 nM and a T1/2 of 2.32 h.

B2: 1A2 (antibody, V domains shown)
VH: EVQLLESGGGLVQPGGSLRLSCAASGFTSITYAMSWVRQAPGKGLEWVSAISVSGTNTYYADSVKGRFTISRDKSKNMLYLQMNSLRAEDTAVYYCAKDLLHNWKYGTFDIWGQGTMVTVSS
VL: EIVMTQSPATLSVSPGERATLSCRASQSVDSNLVWYQQKPGQVPRLLIYGASTRATGIPARFSGSGSGTEFTLTISSLQSEDFAVYYCQQYNKWPLTFGGGTKVEIK
notes: also called 1A2 mAb
Consider B2, for which the “IC50, GDF8-inducible luciferase, A204/Smad2 cells, 0.8 nM GDF8” value in assay [6] worked out at 0.8 nM. Besides, in assay [7], the “IC50, GDF11-inducible luciferase, A204/Smad2 cells, 0.8 nM GDF11” value was 1400 nM. Also, in assay [1], the “IC50, luciferase bioassay, 0.5 nM GDF8” value was 0.196 nM and the “IC50, luciferase bioassay, 1 nM GDF8” value worked out at 0.363 nM. In assay [8], the “IC50, luciferase bioassay, 0.4 nM GDF11” value is about 600 nM and the “IC50, luciferase bioassay, 0.8 nM GDF11” value is about 800 nM. Also, in [9], the affinity, expressed as Kd, was 0.32 nM and the T1/2 stood at 1 h. In [10], this molecule gave a Kd of 0.3 nM and a T1/2 of 0.467 h. Moreover, the binding result in assay [11] was “binds”. Further, in [12], the binding result is “binds”. For the same molecule, the binding result in assay [13] is recorded as “binds”.
